Measurements taken from the RNAGym collection of RNA variant scans (doi:10.7554/elife.90254).

B1: LINE1-full (parent)
chain: UACGUAGGUGGUUUUCCCCUGAUAGUGCUAAGGGGGCCUGGAAGUUUGGACUGGGCAGAGCUCAACACAGCGUGGCAAAGUGGCUGUGGCUAGACUGCCUCUCUGGAUUCCUCGUCACUCAGCAGGGCAUCUCUGAGAGAAAUGCC

Variants of: B1
Assay: self-cleavage, relative activity (ratio to wild type); higher = more cleavage; in vitro, sequencing; the parent is a self-cleaving ribozyme

Compared with G88A A117G, U45A A67G is higher in self-cleavage: 0.07 for the first, 0.37 for the second.

Compared with A65G C95U, A2G U23C is higher in self-cleavage: 0.05 for the first, 0.69 for the second.

Going from U26C A141G to G89A C133U, the self-cleavage falls from 1.27 to 0.03.

Going from U12C U15A to U96C C120U, the self-cleavage falls from 0.7 to 0.2.

Going from U85C A136C to A50G U85C, the self-cleavage falls from 0.24 to 0.1.

First: U12A U13A
Second: U115A A141U
The self-cleavage of the first is higher: 1.08 for the first, 0.53 for the second.

Compared with A31G C128U, U87A U119A is lower in self-cleavage: 1.02 for the first, 0.08 for the second.

First: U26A U134A
Second: U12G G36A
The self-cleavage of the first is higher: 1.23 for the first, 0.22 for the second.

Compared with U85C A142U, A31G A64G is higher in self-cleavage: 0.21 for the first, 0.31 for the second.

Compared with G53A A79G, G32A U47A is higher in self-cleavage: 0.71 for the first, 1.37 for the second.

Going from A67U A117G to U132C G144A, the self-cleavage rises from 0.19 to 1.86.

Compared with U47A A57C, U13C U14C is higher in self-cleavage: 0.06 for the first, 1.13 for the second.

Going from G74A A129U to G34U U52A, the self-cleavage rises from 1.09 to 1.22.

Compared with U5C G105A, C76U G137U is higher in self-cleavage: 1.16 for the first, 1.87 for the second.

Compared with U85G A94G, U85A U96A is lower in self-cleavage: 0.36 for the first, 0.12 for the second.

Going from U119C U132C to U47G U91A, the self-cleavage falls from 2.32 to 1.93.

Compared with U96G U109C, C76A A142G is higher in self-cleavage: 0.17 for the first, 1.87 for the second.

Going from U104C G125U to A31C U134A, the self-cleavage falls from 1.68 to 1.26.

First: U102C A121U
Second: U52C A141G
The self-cleavage of the first is higher: 2.05 for the first, 1.25 for the second.

Going from U62G C63U to U12G U96C, the self-cleavage rises from 0.07 to 0.27.

Compared with U29A A107G, U1C A22U is lower in self-cleavage: 1.56 for the first, 0.54 for the second.

Going from A57G C61U to U13A A136G, the self-cleavage rises from 0.05 to 1.38.

Compared with U13C G34U, A24G G54A is lower in self-cleavage: 1.99 for the first, 0.67 for the second.

Going from A24G G54C to U20C U87A, the self-cleavage falls from 0.72 to 0.1.

Compared with A67U U132A, U23C C61A is lower in self-cleavage: 0.11 for the first, 0.06 for the second.

Compared with U20A G36C, A31U A141G is higher in self-cleavage: 0.93 for the first, 1.01 for the second.

Going from C18U A136G to G40A U119C, the self-cleavage falls from 1.33 to 0.84.

Compared with G60U U85C, A94U U109A is higher in self-cleavage: 0.03 for the first, 0.27 for the second.

First: U100C G126C
Second: A65G U100G
The self-cleavage of the first is higher: 2.64 for the first, 0 for the second.

Compared with U15A A121C, U112A A129G is higher in self-cleavage: 0.82 for the first, 0.98 for the second.

Going from U1A G25C to U13A G60C, the self-cleavage falls from 1.2 to 0.

Going from U12G A69G to U12G A78G, the self-cleavage falls from 0.77 to 0.

First: G44A U52C
Second: G35U U100C
The self-cleavage of the first is lower: 1.32 for the first, 1.85 for the second.

First: U29C U39C
Second: U23A U29C
The self-cleavage of the first is higher: 1.74 for the first, 1.02 for the second.

Going from U15A G35C to U26G G105A, the self-cleavage falls from 1.26 to 1.06.

Going from G33U A57G to A78U U115C, the self-cleavage rises from 0.64 to 1.72.

Compared with U1C A50G, U115A C131U is higher in self-cleavage: 0.64 for the first, 1.65 for the second.

First: A22U A43G
Second: G60A U62C
The self-cleavage of the first is higher: 1.01 for the first, 0.04 for the second.

A69U A129U and U85A C111A are the same in self-cleavage: 0.06 for the first, 0.06 for the second.

Compared with U81C G88A, U91A U109C is higher in self-cleavage: 0.12 for the first, 0.65 for the second.

First: G7U A141G
Second: U85C
The self-cleavage of the first is higher: 1.62 for the first, 0.18 for the second.

Compared with G114U A136G, C95U U119C is lower in self-cleavage: 1.49 for the first, 0.22 for the second.

Going from G105A G127U to U13C A92G, the self-cleavage falls from 1.31 to 0.

Going from U15C G106C to G21A U39C, the self-cleavage falls from 1.03 to 0.78.

Going from A59G G86A to U81A U102C, the self-cleavage rises from 0.07 to 2.18.

Compared with U12C G72A, C63U U132A is lower in self-cleavage: 1.25 for the first, 0.46 for the second.

Going from U12C U45A to A2U U143C, the self-cleavage rises from 0.88 to 1.28.

Going from U47A G88U to U20C U62C, the self-cleavage rises from 0.03 to 0.1.

Going from U73G C84U to U5A A136G, the self-cleavage rises from 0.17 to 1.14.

Compared with C37G U102A, U62A G83A is lower in self-cleavage: 0.9 for the first, 0.05 for the second.

First: U9A A50G
Second: A64G U85C
The self-cleavage of the first is higher: 1.03 for the first, 0.1 for the second.

Compared with C76U A142G, A67G U143A is lower in self-cleavage: 2.37 for the first, 0.42 for the second.

First: A31U A140U
Second: U20A C95A
The self-cleavage of the first is higher: 0.94 for the first, 0.09 for the second.

Going from A6G U108C to C76U U119C, the self-cleavage rises from 0.79 to 2.91.

Compared with A22G G49A, C68G U134G is lower in self-cleavage: 0.84 for the first, 0.04 for the second.

Going from G58U A65U to U87G A117G, the self-cleavage falls from 0.04 to 0.

Compared with U52C A138U, U20A A69U is lower in self-cleavage: 1.5 for the first, 0.1 for the second.

Compared with U29C A43G, A24G G35U is lower in self-cleavage: 1.29 for the first, 1.15 for the second.

Compared with A78G G127A, A50G U52A is lower in self-cleavage: 1.16 for the first, 0.91 for the second.

Going from A43U U96A to G11C A67G, the self-cleavage rises from 0.12 to 0.46.

Compared with C51U U119C, C95U U96C is lower in self-cleavage: 1.73 for the first, 0.07 for the second.

Compared with U26C A67G, A43G A117G is lower in self-cleavage: 1.16 for the first, 0.71 for the second.

Compared with U52A U109C, A69U A124G is lower in self-cleavage: 1.21 for the first, 0.05 for the second.

Going from U5G U12C to U45C G60C, the self-cleavage falls from 0.77 to 0.03.

Compared with U112C U134G, U12C G49A is lower in self-cleavage: 1.34 for the first, 1.28 for the second.

Going from A6U A57U to G44A A79G, the self-cleavage rises from 0.08 to 0.99.

Compared with U1C U100C, U62A U115C is lower in self-cleavage: 1.2 for the first, 0.04 for the second.

Compared with U87C U119G, A31U U100G is higher in self-cleavage: 0 for the first, 1.23 for the second.

Compared with G8U A42U, C38G A138U is higher in self-cleavage: 1.17 for the first, 1.31 for the second.

Going from U85A A136G to A6G C38U, the self-cleavage rises from 0.11 to 1.62.

Compared with U15C U81A, G72A U102C is lower in self-cleavage: 2.14 for the first, 0.46 for the second.

First: A94C A107G
Second: U47C C95A
The self-cleavage of the first is higher: 0.13 for the first, 0.09 for the second.

First: A6G G32A
Second: G74A G86A
The self-cleavage of the first is higher: 0.68 for the first, 0 for the second.

Compared with A69G G83A, U23A A64U is higher in self-cleavage: 0.18 for the first, 0.34 for the second.

Going from A2C G89A to U45A A78U, the self-cleavage rises from 0.05 to 1.99.

Compared with U81A U87A, A78U G122A is higher in self-cleavage: 0.11 for the first, 1.36 for the second.

First: G54A A138G
Second: A78U U112A
The self-cleavage of the first is lower: 0.84 for the first, 2.12 for the second.

Compared with G55U C133A, U104A G122C is higher in self-cleavage: 0.26 for the first, 1.48 for the second.

First: U20C G93A
Second: G74A A79U
The self-cleavage of the first is lower: 0.04 for the first, 2.06 for the second.

First: A43U G82A
Second: G48A U62A
The self-cleavage of the first is higher: 1.4 for the first, 0.02 for the second.

Going from A92C to A30G A136U, the self-cleavage rises from 0.13 to 0.55.

Going from A92C U104A to U104G C123U, the self-cleavage rises from 0.38 to 1.25.

First: U9A C131U
Second: U15A A57U
The self-cleavage of the first is higher: 0.79 for the first, 0.14 for the second.

U15A C110A showed a self-cleavage of 1.16.
